Results from paper PMC3057111.

Key:
[1] = target: T1, hnRNPLL RRM1 V136D (thunder) (Mus musculus, UniProt Q921F4 109-213, V136D); assay: ITC
T1 sequence: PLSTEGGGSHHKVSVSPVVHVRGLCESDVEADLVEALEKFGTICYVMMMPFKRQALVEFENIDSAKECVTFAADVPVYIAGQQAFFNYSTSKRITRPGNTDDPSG

hnRNPLL RRM1 WT [2] = target: T2, hnRNPLL RRM1 WT (Mus musculus, UniProt Q921F4 109-213); assay: ITC
T2 sequence: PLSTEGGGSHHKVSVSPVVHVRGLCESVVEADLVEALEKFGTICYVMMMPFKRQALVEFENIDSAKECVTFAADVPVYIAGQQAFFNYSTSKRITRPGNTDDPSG

[3] = target: T1, hnRNPLL RRM1 V136D (thunder); assay: NMR titration
[4] = target: T1, hnRNPLL RRM1 V136D (thunder); assay: NMR titration; remark: listed apart in the source
[5] = target: T1, hnRNPLL RRM1 V136D (thunder); assay: NMR titration; remark: listed apart in the source
hnRNPLL RRM1 WT [6] = target: T2, hnRNPLL RRM1 WT; assay: NMR titration
hnRNPLL RRM1 WT [7] = target: T2, hnRNPLL RRM1 WT; assay: NMR titration; remark: listed apart in the source
hnRNPLL RRM1 WT [8] = target: T2, hnRNPLL RRM1 WT; assay: NMR titration; remark: listed apart in the source

CCUUACCUGCACGCA (ssRNA) [Ptprc exon 6 ARS 15-mer WT] showed a Kd [1] of 3.1 ± 1.4 µM, a Kd (hnRNPLL RRM1 WT [2]) of 1900 ± 400 nM and a Kd [3] of 2000 ± 700 nM. For the same binder, the Kd [4] was 1000 ± 400 nM, the Kd [5] was 1100 ± 400 nM and the Kd (hnRNPLL RRM1 WT [6]) was 1500 ± 1300 nM. It also gave a Kd (hnRNPLL RRM1 WT [7]) of 700 ± 700 nM and a Kd (hnRNPLL RRM1 WT [8]) of 100 nM.
